Here are results for one molecule from paper PMC3734125, “Epitope Mapping and In Silico Characterization of Interactions between Der p 7 Allergen and MoAb WH9” (PLoS ONE, 2013).

Test in all cases: far-Western, overlay or dot blot; SDS-PAGE immunoblot: purified recombinant Der p 7 proteins on PVDF membrane, incubated with hybridoma culture supernatant (1:10 in TTBS, 1% skim milk) 1 h at room temperature; band intensities quantified; percent reduction against the wild type
Common to all, as to conditions: one partner purified

Test [1] deals with T1, Der p 7 (wild type, recombinant) (Dermatophagoides pteronyssinus, UniProt P49273).
T1 construct: Mite allergen Der p 7, Dermatophagoides pteronyssinus, GenBank U37044; Expression and purification are described for the mutants (pQE80, E. coli JM109, Ni-NTA); also called wild-type Der p 7; source: purified recombinant protein
T1 sequence (P49273 18-215): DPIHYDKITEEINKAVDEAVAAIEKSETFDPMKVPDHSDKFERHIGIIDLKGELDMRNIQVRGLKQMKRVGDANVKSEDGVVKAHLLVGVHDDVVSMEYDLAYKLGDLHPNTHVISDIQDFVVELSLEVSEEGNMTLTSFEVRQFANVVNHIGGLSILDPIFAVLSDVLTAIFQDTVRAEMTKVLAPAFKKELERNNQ

The target of test [2] is T2, Der p 7 D159A mutant (Dermatophagoides pteronyssinus, UniProt P49273, D159A).
T2 construct: Mite allergen Der p 7, Dermatophagoides pteronyssinus, GenBank U37044; source: E. coli JM109, purified (Ni-NTA)
T2 sequence (P49273 18-215 D176A): as the sequence (P49273 18-215) above, with D159A counted along it

Test [3] addresses T3, Der p 7 S156A mutant (Dermatophagoides pteronyssinus, UniProt P49273, S156A).
T3 construct: Mite allergen Der p 7, Dermatophagoides pteronyssinus, GenBank U37044; source: E. coli JM109, purified (Ni-NTA)

For test [4], the target named is T4, Der p 7 L158A mutant (Dermatophagoides pteronyssinus, UniProt P49273, L158A).
T4 construct: Mite allergen Der p 7, Dermatophagoides pteronyssinus, GenBank U37044; source: E. coli JM109, purified (Ni-NTA)
T4 sequence (P49273 18-215 L175A): as the sequence (P49273 18-215) above, with L158A counted along it

For test [5], the target named is T5, Der p 7 P160A mutant (Dermatophagoides pteronyssinus, UniProt P49273, P160A).
T5 construct: Mite allergen Der p 7, Dermatophagoides pteronyssinus, GenBank U37044; also called P106A (as printed once); source: E. coli JM109, purified (Ni-NTA)
T5 sequence (P49273 18-215 P177A): as the sequence (P49273 18-215) above, with P160A counted along it

T3 sequence (P49273 18-215 S156A): as the sequence (P49273 18-215) above, with S139A counted along it

B1: MoAb WH9 (antibody, V domains shown)
VH: QVQLEQSGAELAKVGASVKMSCKASGYTFTNYWMHWVKQRPGQGLEWIGYINPSIGYIDYNQKFKDKATLTVDKSSSTAYMQLSSLTSEDSAVYYCAGVEYGSSLGDYFDDWGQGTTL
VL: not shown
notes: variable domain of the heavy chain of WH9; the first nine amino acids derive from the PCR primer; variable domain of the light chain of WH9; the first eight amino acids derive from the PCR primer; also called mouse monoclonal antibody WH9; source: hybridoma WH9, culture supernatant
On to B1, for which the binding result in test [1] is reported as “binds”. The “mean percentage of reduction in immunoreactivity against the wild type” value turned out to be 81% in test [2], 18% in test [3], 87% in test [4] and 87% in test [5].
